Assay [1] deals with monoclonal antibody D32.39. The assay is described as follows: solution competition of free peptide against radiolabeled dynorphin B peptide for D32.39.
The target in assay [2] is monoclonal antibody D32.39.
For assay [3], the target named is monoclonal antibody D32.39. The source holds these as a separate data set.

surface (amide) = not defined here

One may read the IC50 as the midpoint of a concentration-inhibition curve. A lower IC50 goes with greater potency.

Turning to Ac-QFKVVT-OH [Ac-QFKVVT-OH, free peptide], the IC50 in assay [1] turned out to be 3200 nM.
Ac-LRRQFKV-{surface (amide)} (reading uncertain; also: C-terminus amide-linked to surface) [LRRQFKV, surface-immobilized peptide]: in assay [2], the Normalized Intensity (%) worked out at 16%.
Still for that read-out and setting: in the case of Ac-RQFKVV-{surface (amide)} (reading uncertain; also: C-terminus amide-linked to surface) [RQFKVV, surface-immobilized peptide] it was 54%.
Take Ac-KVVT-{surface (amide)} (reading uncertain; also: C-terminus amide-linked to surface) [KVVT, surface-immobilized peptide]: in assay [2], the Normalized Intensity (%) was 11%.
The same measure, in the same setting: in the case of Ac-FLRRQFKV-{surface (amide)} (reading uncertain; also: C-terminus amide-linked to surface) [FLRRQFKV, surface-immobilized peptide] it was 14%; in that of Ac-RRQFK-{surface (amide)} (reading uncertain; also: C-terminus amide-linked to surface) [RRQFK, surface-immobilized peptide], 12%.
On the same count and under the same terms, in the case of Ac-RRQFKVV-{surface (amide)} (reading uncertain; also: C-terminus amide-linked to surface) [RRQFKVV, surface-immobilized peptide] it was 58%; in that of Ac-LRRQFKVV-{surface (amide)} (reading uncertain; also: C-terminus amide-linked to surface) [LRRQFKVV, surface-immobilized peptide], 44%; in that of Ac-RRQF-{surface (amide)} (reading uncertain; also: C-terminus amide-linked to surface) [RRQF, surface-immobilized peptide], 11%.
Same read-out and setting: in the case of Ac-RQFKV-{surface (amide)} (reading uncertain; also: C-terminus amide-linked to surface) [RQFKV, surface-immobilized peptide] it was 16%; in that of Ac-FKVVT-{surface (amide)} (reading uncertain) [FKVVT, surface-immobilized peptide], 13%.
Molecule Ac-FLRRQFKVV-{surface (amide)} (reading uncertain; also: C-terminus amide-linked to surface) had a Normalized Intensity (%) in assay [2] of 37%.
Take Ac-RQFK-{surface (amide)} (reading uncertain; also: C-terminus amide-linked to surface) [RQFK, surface-immobilized peptide]: the Normalized Intensity (%) in assay [2] is 13%.
In turn, Ac-LRRQF-{surface (amide)} (reading uncertain; also: C-terminus amide-linked to surface) [LRRQF, surface-immobilized peptide] displayed a Normalized Intensity (%) in assay [2] of 10%.
On the same count and under the same terms, as for Ac-FLRR-{surface (amide)} (reading uncertain) [FLRR, surface-immobilized peptide], the figure is 6%; as for Ac-LRRQFKVVT-{surface (amide)} (reading uncertain; also: C-terminus amide-linked to surface), 87%.
Still for that read-out and setting: in the case of Ac-FLRRQF-{surface (amide)} (reading uncertain; also: C-terminus amide-linked to surface) [FLRRQF, surface-immobilized peptide] it was 8%; in that of Ac-FLRRQFK-{surface (amide)} (reading uncertain; also: C-terminus amide-linked to surface) [FLRRQFK, surface-immobilized peptide], 10%.
Molecule Ac-RQFKVVT-NH2 [Ac-RQFKVVT-NH2, free peptide] yielded an IC50 in assay [1] of 7.3 nM. This counts as single-digit nanomolar.
Regarding Ac-LRRQFK-{surface (amide)} (reading uncertain; also: C-terminus amide-linked to surface) [LRRQFK, surface-immobilized peptide], the Normalized Intensity (%) in assay [2] turned out to be 12%.
As for Ac-FKVVT-OH [Ac-FKVVT-OH, free peptide], the IC50 in assay [1] turned out to be 77000 nM.
Consider Ac-RRQFKVVT-{surface (amide)} (reading uncertain; also: C-terminus amide-linked to surface) [RRQFKVVT, surface-immobilized peptide], for which the Normalized Intensity (%) in assay [2] came out at 99%.
On the same count and under the same terms, as for Ac-RQFKVVT-{surface (amide)} (reading uncertain; also: C-terminus amide-linked to surface) [RQFKVVT, surface-immobilized peptide], the figure is 99%.
As for Ac-FLRRQFKVVT-{surface (amide)} (reading uncertain; also: C-terminus amide-linked to surface), in assay [3], the relative signal came out at 100%. Moreover, the Normalized Intensity (%) in assay [2] was 98%.
Take Ac-FLRRQ-{surface (amide)} (reading uncertain) [FLRRQ, surface-immobilized peptide]: in assay [2], the Normalized Intensity (%) came to 8%.
The same measure, in the same setting: in the case of Ac-QFKV-{surface (amide)} (reading uncertain; also: C-terminus amide-linked to surface) [QFKV, surface-immobilized peptide] it was 11%; in that of Ac-QFKVVT-{surface (amide)} (reading uncertain; also: C-terminus amide-linked to surface) [QFKVVT, surface-immobilized peptide], 28%.
Same read-out and setting: in the case of Ac-FKVV-{surface (amide)} (reading uncertain) [FKVV, surface-immobilized peptide] it was 10%.
The same measure, in the same setting: as for Ac-LRRQ-{surface (amide)} (reading uncertain; also: C-terminus amide-linked to surface) [LRRQ, surface-immobilized peptide], the figure is 10%.
In turn, Ac-RQFKVVT-OH [Ac-RQFKVVT-OH, free peptide] returned an IC50 in assay [1] of 11 nM. This counts as double-digit nanomolar.
On the same count and under the same terms, in the case of Ac-RRQFKVVT-OH [Ac-RRQFKVVT-OH, free peptide] it was 3.9 nM.
Ac-QFKVV-{surface (amide)} (reading uncertain; also: C-terminus amide-linked to surface) [QFKVV, surface-immobilized peptide]: the Normalized Intensity (%) in assay [2] is 17%.
On the same count and under the same terms, in the case of Ac-RRQFKV-{surface (amide)} (reading uncertain; also: C-terminus amide-linked to surface) [RRQFKV, surface-immobilized peptide] it was 16%.

Source of the values: patent publication US6468740.
